± gives the half width of the 95% confidence interval.
Tests used:
[1] = folding stability dG unfold (combined trypsin and chymotrypsin); higher = more stable
Procedure, shortened: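 Unfolding free energy was derived, per protease or combined, by relating Bayesian-fitted K50 values from sequencing counts to a sequence-predicted unfolded-state K50 and a shared folded-state K50. The underlying digests exposed cysteine-free mini-proteins under 80 residues, in a PA-tagged cDNA display construct, to trypsin and chymotrypsin at 11 threefold-diluted concentrations and to a no-protease condition. A filter kept only designs with AlphaFold2 dimer inter-PAE above 15.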

[2] = folding stability dG unfold from trypsin proteolysis; higher = more stable
Method: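 Folding stability of de novo designed mini-proteins (<80 aa, no Cys; designed by TrROS, TrMRF, ProteinMPNN and the joint model) was measured by cDNA display proteolysis with trypsin and chymotrypsin. Each protease was used at 11 concentrations in a threefold dilution series plus a no-protease condition. K50 was inferred by Bayesian fitting of sequencing counts, and dG unfold was derived against a sequence-predicted unfolded-state K50 (Tsuboyama et al. method). Sequences shown include variable-length N-terminal GS-type padding (SAGGSAGG...) inside a display construct carrying a PA tag. Rows were kept only if the AF2 dimer inter-PAE was >15, to exclude likely homo-oligomers.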

Sequence	folding stability dG unfold [1] [kcal/mol]	folding stability dG unfold [2] [kcal/mol]
EMTVTVKIEIEKTPDSIKIKITVEVNGKKIEEVEITYDKKTKKIYIKVKVKSKEDLDELKKLLEKLGFKVES [r1_455_TrROS_Hall]	> 6	3.81 ± 0.31
GKVLAVPVSYDPETGTVTVLEVKDTGTTLATLKPLPVVDISREELEKLAKGLAEENPELKELAEKLVEELAS [r1_330_TrMRF]	-0.197 ± 0.35	-0.145 ± 0.075
GMVLVRVELYRPDEEELVAEVEIPFPVPESLLENLSEEEREKLREEAEKAAEKLAEELGDVEVKPEIYTDLS [r1_115_TrMRF]	-0.317 ± 0.42	0.147 ± 0.095
IKIRFPDGHEITEIDDLSFSGNGYIEINVKVRNPENPQTQPMPIYIPVPPVPPPPVKIERDPGNGKWKYEDS [r1_411_TrROS]	-0.179 ± 0.33	0.799 ± 0.07
LKITLPGGAEVTEIDDIKVSSDGYIELNVRVRNPDNDVEVPVPVYIPVPPVPPVPVKVSFIPGTGKLVVDDS [r1_411_TrMRF]	< -1	0.0956 ± 0.11
MKKTIPFPPSHPDLSPEEVAERLRERFLSPEESITVTTDPATGTTTVTATRGNVTTVATLSPAGTVTVTGAS [r1_131_JUSTAS]	< -1	-0.0831 ± 0.14
SAAPTSSGPISLNKPEILTITSVEADPETGTITTPTRVELTEEELDPFNPEIPTFKKKYLDVTLTTPTSSAG [r14_888_JUSTAS]	< -1	-0.643 ± 0.45
SAGDWMMVEMTVDFPPDQITEEEIKQALQEHFGEVEIDWNPGDGRIPITVYMPPGDMNKIQDALKEAGLSAG [r5_378_TrROS]	0.218 ± 0.19	0.755 ± 0.053
SAGGALAVKVEFDEEIPTATITYRAPVPGEGGAVDVPADEVAAAIAKALGLPDLEEVTVNVPAPDAPLSAGG [r13_327_JUSTAS]	-0.543 ± 0.22	0.197 ± 0.075
SAGGAMPKTITVTDPTSSREEAEALLASPERLEAIAEEIKPEFPGVDLTVTVSSDPATGTLTITIVSSAGGS [r16_320_JUSTAS]	< -1	0.289 ± 0.072
SAGGDILLVIPAELFFDEDGKPSEEAVKAIEKAAELAEKLNKEGKPVKIEVKVVPLLPPVSPSDPYVFSAGG [r13_731_TrMRF]	-0.358 ± 0.36	0.162 ± 0.055
SAGGELREKIEEAVEEAAKAGKPVVKTSEIEARLGRPLTPELLEYVREKGIIERDPKGSITITLPEDKSAGG [r13_188_JUSTAS]	< -1	-0.895 ± 0.91
SAGGFRINIPPNMPKEKLEEIQDEAEEESGMPVTINTNPDDGSLHIEFPGGPEWKQRRIQDEIRELLSAGGS [r16_227_TrROS]	< -1	-0.507 ± 0.44
SAGGFRITPEFLEELLKNMPPGDPNKTITVKVEMPMRYEPRKGGNGQPQYRHEYPMTHEFPITIPPKSAGGS [r16_708_TrROS]	-0.349 ± 0.19	0.32 ± 0.066
SAGGGEVKKVTYVVVIELPPDPETGEPHPLPLVLEREYPADDPEAVESDIKKALDEIDIPEEAKEALSAGGS [r16_40_TrMRF]	0.123 ± 0.32	0.403 ± 0.083
SAGGGMTLTQVSSHQSPNGGVPTTLVTETLFYPETGTAVVLTKVRLPETGEVTTVASTVLPIPPPLLSAGGS [r8_384_JUSTAS]	-0.726 ± 0.31	-0.0612 ± 0.066
SAGGGSHTFKDNGKKIKITVYPPPNGNMRVQLQIYDPDDGKPKPKAIAPFRGGSVEDAIKDLLDAGISAGGS [r16_378_TrROS]	-0.625 ± 0.32	-0.0278 ± 0.19
SAGGGSMVNISKEELAKKIAKELGKDFPTENVKVKKEIYPEPVSIYTITIKVPGTNITLNVPITLPESAGGS [r16_42_JUSTAS]	-0.226 ± 0.22	-0.043 ± 0.098
SAGGGSSMVTTVIPVLRTETLFDENGNVIGPRTTVETIELEAEVPLPPRPPLVFSFVPPELRDPAVLLSAGG [r13_508_JUSTAS]	< -1	-0.299 ± 0.24
SAGGGVSTSTDPNSDTTTTTVPLPNSDSTATSTHNPSTGTSTTTVPTNNTTTTYSPGGTTTATTTLPTSAGG [r13_101_JUSTAS]	-0.425 ± 0.18	0.465 ± 0.034
SAGGKPDIKDIEIDDVEYDPNEGYFRYEVEIKWPGGKERPIEVPMKYEDGRMTPEDIRKMAKKLIKNSAGGS [r16_221_TrROS]	< -1	0.423 ± 0.15

Sequence	folding stability dG unfold [1] [kcal/mol]	folding stability dG unfold [2] [kcal/mol]
SAGGKVREIDFPMDPGELRDAIDELKREGYMVMIEMPNGQERTIDPNLEDLPPGMPFEIYVMPPKDGSAGGS [r16_31_TrROS]	< -1	-0.212 ± 0.33
SAGGLEAKITEIDEDGYLRIEIVDPETGELIAEIRIKIELPPPPPVPETEEVLDEDGRKRTVTRLYDRSAGG [r13_9_TrROS_Hall]	-0.406 ± 0.23	0.214 ± 0.13
SAGGMDVKVEVKEVELPEAKVTITKITTPDGSTSTITYDPETGTADVTTTTPTSTTTTTLPKSEIKPLSAGG [r13_328_JUSTAS]	0.184 ± 0.31	0.846 ± 0.097
SAGGMGQEELENLPPEVVAGLLAEEALAEAERLGRPNEAVTVEVELGDVPLRIELTADGKIARIEAGSAGGS [r16_431_TrMRF]	< -1	-0.548 ± 0.14
SAGGMPIKPKVELEPLEDAYLVRVRFEAPDRPIEIRRAFASFPDAVREAEEIARFLEEAEIPSPEGGSAGGS [r16_24_TrMRF]	< -1	-0.682 ± 0.66
SAGGMRIWRVPETGVRAEVGTGGPWLVTITSSTTPVPEVRPVPPEEVEAFLRARFPGPVEEVERRPVPESAG [r5_519_JUSTAS]	-0.783 ± 0.19	-0.647 ± 0.34
SAGGMTEIEPDSEEKAEAEIEKVVEEEAEKALKSEKKNVTIKVDVKVVDPVTGKSKTYPVEKLVKLPSAGGS [r8_163_JUSTAS]	< -1	-1.4 ± 0.83
SAGGMTPEELKKVTIEKTVKDPSGNEYLEKSEVKEVEKKDEKYILKIPYTIKDKNGNTISNGTKTIPLSAGG [r13_172_JUSTAS]	< -1	-0.446 ± 0.5
SAGGMVVTSESREPDGTWTVRTVYRDPAGNLTITSSSTSSATVTRKDSAGTPSTAASTTNTYTSAALSAGGS [r8_270_JUSTAS]	-0.281 ± 0.15	0.216 ± 0.067
SAGGNPDWIPIQVPFEDPGDQDAMKKLVEELADIFLDEGIKPIEVEHTNPGHYSVWIPFDGKSIRIHSAGGS [r16_703_TrROS]	-0.888 ± 0.38	-0.37 ± 0.13
SAGGPKEIIKEIAEKYGITEIMPWDDMKNMPPENPNKIHIWPDPEGHYMVMIRAPNGNKKSIEFPIESAGGS [r16_686_TrROS]	< -1	-1.02 ± 0.3
SAGGPVVLKIEIEQKTDGKPQERELVIPVKWDPNGQVDADEIKDWVEEALPPGYKIEDIDVVPPGQPFSAGG [r13_504_TrROS]	< -1	-0.594 ± 0.22
SAGGRGQELTIPNGAPIEDIEELAKKDPDYQVKITEIKMQKPKKDPNGKKRPVPMWMKITLYPAGEKSAGGS [r8_172_TrROS]	< -1	0.116 ± 0.27
SAGGRPTMTAEEAAIRLIKELGIPGVKDIKEVVAVVRGGDPDNKPEKGSAILIKAEVPAEEVERLKKESAGG [r13_552_TrMRF]	-0.299 ± 0.11	0.221 ± 0.045
SAGGSAETYPVTVVVPLPPGGRELPVEELEDLVRETLANVPDLPDVKVEVTLLEPEGRALVRVEFPSAGGSA [r15_1029_TrMRF]	-0.594 ± 0.16	0.0434 ± 0.12
SAGGSAFKELLKEIKEQLQQAPPGEQVEVPIPFPDGYPLRIEINPDENKIEVEYPNGEEEEFDIPPSAGGSA [r15_977_TrROS]	< -1	0.133 ± 0.19
SAGGSAGGEYKVYPVKGDLKEFFDEAYKENPGGVRIIDPDTDEVLDFPPDLSLDEFPGTFVVLGSAGGSAGG [r6_857_TrMRF]	< -1	-0.238 ± 0.13
SAGGSAGGGLSASDTVTFPDGTVVTVAPDATVTITVPAPPDAAGNLTSTVTRTVTVAPGTRVLLSAGGSAGG [r6_90_JUSTAS]	< -1	-0.907 ± 0.41
SAGGSAGGLVIRNPDTNELIELKPGEELTITVTVEAPPAEEETTTETETRTLTLTVRLPEEAEESAGGSAGG [r6_273_TrROS_Hall]	-0.0133 ± 0.21	0.156 ± 0.16
SAGGSAGGMKPTVEVRPVPPSARMVVTITLPGSGKKVTIPVPDAPAPEEPERVIEEALAYVKTSSAGGSAGG [r6_331_JUSTAS]	< -1	-0.714 ± 0.47
SAGVEYEVKVEYDPETGTVTAPVTFPDGPEAIVEIEFEEPGRYKMIIRIEEEEKEFEVDPDAIDEITIESAG [r5_14_TrMRF]		-0.551 ± 0.25

Reference: the supplement of paper PMC12764529
